Entries after “also recorded” stand apart in the source; their conditions may differ.
Legend:
[1] = system: mice with androgenic alopecia; experiment: Second experiment: testosterone hair loss model, hair growth, skin blackness, scanning electron microscopy and hair follicle count; format: in vivo, C57BL/6 male mice; conditions: for hair growth on the back skin: 17th day, 0.15 mL/mouse once a day; for growth stage and quantity of back hair under dermoscope: end of experiment
Description: Experimental animals: C57BL/6 male mice, 6-7 weeks old, weighing (20±2) g, were provided by Beijing Vital River Laboratory Animal Technology Co. Ltd., with the animal license number of SCXK (Beijing) 2021-0006. They were kept in a 12 h light/12 h dark environment, with free access to food and water. The mice were divided into normal control group (normal group, NC), model group (Model), experimental group C (rh-CRT-2, with a concentration of 0.35 mg/ml) including an injection group and an external application group, experimental group D (rh-CRT-3, with a concentration of 0.21 mg/ml) including an injection group and external application group, and positive control-minoxidil group (Minoxidil). The proteins were stored in a −70° C. refrigerator and diluted with physiological saline when used. There were 6 mice in each group.
Modeling and drug administration: First, the hair loss model was established. One day before the modeling, the hair in the center of the back of the experimental animal was removed with a skin preparation knife, and the prepared skin area was depilated with a depilatory cream. After 24 hours of depilation, the normal control group was given 75% ethanol, and other groups were injected with testosterone solution (5 mg/mL) prepared with 75% ethanol, 0.01 mL/mouse. Two hours later, the injection groups of experimental group C and experimental group D were injected on the back, 0.15 mL/mouse, once a day, for 17 consecutive days; the external application groups of experimental group C and experimental group D were applied on the back, 0.15 mL/mouse, once a day, for 17 consecutive days. The normal control group and the model group were externally applied with physiological saline, once a day, 0.15 mL/mouse, for 17 consecutive days. During the drug administration process, except for the normal control group, all other groups were injected with the modeling agent (testosterone), and administrated with drugs after 2 hours. […] After the experiment, the mouse skin was pathologically sectioned as follows: The skin pathological tissue was fixed in 4% paraformaldehyde, trimmed, dehydrated and transparent, and then embedded. The slices were cut with a thickness of 6 μm using a paraffin slicer, and further dewaxed, stained, dehydrated, transparent and sealed. The hair follicles in different areas were observed under an optical microscope, and the number of hair follicles was statistically analyzed.
Scanning electron microscopy observation: At the end of the experiment, hair shafts were randomly plucked from the newly formed hair area on the back of each group of mice. Three mice were selected from each group. The plucked hair shafts were fixed and the changes of hair shafts and hair cuticles were observed by scanning electron microscopy.
Statistical analysis: All data were processed using SPSS 17.0 software. One-way ANOVA was used for comparisons among multiple groups. Data were expressed as mean±standard deviation (x±s). P<0.05 was considered statistically significant, and P>0.05 was not considered statistically significant.

[2] = system: AGA (androgenic alopecia) model mice; experiment: Third experiment: hair growth score in DHT-induced AGA model mice; format: in vivo, C57BL/6N male mice; conditions: Day 17, P<0.05
Description: C57BL/6N male mice, 6-7 weeks old, weighing (18-20) g, 50 mice, with the animal license number of SCXK (Beijing) 2021-0006, were kept in a 12 h light/12 h dark environment, with free access to food and water. Adaptive feeding was performed for about 1 week.
The hair in an area of about 2 cm×3 cm at the border of the spine was shaved using an electric shaver. The depilatory area was applied with 8% sodium sulfide solution. After 90±10 s, the depilatory area on the back was cleaned with cotton balls dipped in water, the residual sodium sulfide was washed away with a washing bottle, and then the mice were wiped dry. Because the hair follicle cycle of mice was in the resting phase at this time, the mouse skin was pink. Mice were randomly divided into groups using Excel software, 10 mice in each group, and the modeling was established after 24 h and the drug was administered for 17 consecutive days. The AGA model was established by injecting dihydrotestosterone into the experimental mice. Dihydrotestosterone (DHT) solution was injected subcutaneously at multiple points every day, 100 μL/mouse (5 mg/kg body weight), and then the drug was administered after 3 h of absorption. CRT-2 and CRT-1 protein solutions were applied externally. 100 μL of protein solution was applied, and 100 μl of minoxidil MNX was applied. The CRT and MNX combination group was first applied with CRT-2 protein solution and then MNX 2 hours later. The solvent formula comprised 50% ethanol, 20% propylene glycol, and 30% pure water.
Scoring was based on the coverage of hair growth: • 0 points: no hair growth, pink in the hair removal area; • 1 point: gray in the hair removal area, hair coverage area E<20%; • 2 points: black in the hair removal area, hair coverage area 20%<E<40%; • 3 points: black in the hair removal area with a little hair growth, hair coverage area 40%<E<60%; • 4 points: black in the hair removal area with some hair growth, hair coverage area 60%<E<80%; • 5 points: black in the hair removal area, hair coverage area 80%<E<100%.
The skin color changes of mice were observed before administration every day. The hair removal time of mice was designated as Day 0, the first day of administration was designated as Day 1, and so on. The hair growth of each mouse was recorded and analyzed on Day 7, Day 9, Day 11, Day 13, Day 15, and Day 17.

[3] = external application group, compared with the model group

B1: CRT-2: fragment (1-349 aa) of recombinantly expressed CRT, amino acid sequence SEQ ID NO: 9 (protein)
chain: EPAVYFKEQFLDGDGWTSRWIESKHKSDFGKFVLSSGKFYGDEEKDKGLQTSQDARFYALSASFEPFSNKGQTLVVQFTVKHEQNIDCGGGYVKLFPNSLDQTDMHGDSEYNIMFGPDICGPGTKKVHVIFNYKGKNVLINKDIRCKDDEFTHLYTLIVRPDNTYEVKIDNSQVESGSLEDDWDFLPPKKIKDPDASKPEDWDERAKIDDPTDSKPEDWDKPEHIPDPDAKKPEDWDEEMDGEWEPPVIQNPEYKGEWKPRQIDNPDYKGTWIHPEIDNPEYSPDPSIYAYDNFGVLGLDLWQVKSGTIFDNFLITNDEAYAEEFGNETWGVTKAAEKQMKDKQDEEQR
hair growth on the back skin ([1]; external application group): promoted hair growth the most | hair growth on the back skin ([1]; injection group): promoted hair growth | blackness of the back skin (color tester) ([1]; Day 14, external application group, compared with the model group, P<0.05): significantly increased | blackness of the back skin (color tester) ([1]; Day 17, external application group, compared with the model group, P<0.01): significantly increased | blackness of the back skin (color tester) ([1]; Day 17, injection group, compared with the model group, P<0.01): significantly increased | growth stage and quantity of back hair under dermoscope [1, 3]: increased number and became thicker | growth stage and quantity of back hair under dermoscope ([1]; injection group, compared with the model group): less and fine | hair cuticles under scanning electron microscopy [1, 3]: dense | hair shafts under scanning electron microscopy [1, 3]: became significantly thicker | number of hair follicles (pathological section) ([1]; external application group, compared with the model group, P<0.01): most significant effect | hair cuticles under scanning electron microscopy ([1]; injection group): dense | hair shafts under scanning electron microscopy ([1]; injection group): thin | number of hair follicles (pathological section) ([1]; injection group, compared with the model group, P<0.01): significantly promoted | hair growth score compared with the Model group ([2]; external application 100 μL, CRT 0.35 mg/ml, MNX 5 mg/ml): significantly increased | hair growth score compared with the CRT-1 group ([2]; external application): better than; also recorded: significantly increased

Reference: patent US20250000944A1, “USE OF RECOMBINANT CALRETICULIN IN HAIR GROWTH, HAIR BREEDING, HAIR PROTECTION OR ANTI-HAIR LOSS AND RELATED PRODUCT” (BEIJING YITUBAIHUI BIOTECH CO., LTD, priority 2021, published 2025)
